Reference: patent publication US20090209006 (published 2009)

Tests used:
[1] = target: ZTNF4 (BLyS/BAFF) (human); assay: competition, 125I-ZTNF4 binding to TACI-coated plates
[2] = target: ZTNF4 (BLyS/BAFF) (human); assay: other, solution radioligand binding with precipitation

Row | Binder | IC50 [1] | Kd [2]
1 | TACI (d1-29, d120-154)-Fc5 (protein) MDAMKRGLCCVLLLCGAVFVSLSQEIHAELRRFRRAMRSCPEEQYWDPLLGTCMSCKTICNHQSQRTCAAFCRSLSCRKEQGKFYDHLLRDCISCASICGQHPKQCAYFCENKLRSPVNLPPELREPKSSDKTHTCPPCPAPEAEGAPSVFLFPPKPKDTLMISRTPEVTCVVVDVSHEDPEVKFNWYVDGVEVHNAKTKPREEQYNSTYRVVSVLTVLHQDWLNGKEYKCKVSNKALPSSIEKTISKAKGQPREPQVYTLPPSRDELTKNQVSLTCLVKGFYPSDIAVEWESNGQPENNYKTTPPVLDSDGSFFLYSKLTVDKSRWQQGNVFSCSVMHEALHNHYTQKSLSLSPGK | 2.21 nM | 0.092 nM
2 | TACI (d1-29, d111-154)-Fc5 (protein) MDAMKRGLCCVLLLCGAVFVSLSQEIHAELRRFRRAMRSCPEEQYWDPLLGTCMSCKTICNHQSQRTCAAFCRSLSCRKEQGKFYDHLLRDCISCASICGQHPKQCAYFCENKLRSEPKSSDKTHTCPPCPAPEAEGAPSVFLFPPKPKDTLMISRTPEVTCVVVDVSHEDPEVKFNWYVDGVEVHNAKTKPREEQYNSTYRVVSVLTVLHQDWLNGKEYKCKVSNKALPSSIEKTISKAKGQPREPQVYTLPPSRDELTKNQVSLTCLVKGFYPSDIAVEWESNGQPENNYKTTPPVLDSDGSFFLYSKLTVDKSRWQQGNVFSCSVMHEALHNHYTQKSLSLSPGK | 2.31 nM | 0.115 nM
3 | TACI (d1-29, d107-154)-Fc5 (protein) MDAMKRGLCCVLLLCGAVFVSLSQEIHAELRRFRRAMRSCPEEQYWDPLLGTCMSCKTICNHQSQRTCAAFCRSLSCRKEQGKFYDHLLRDCISCASICGQHPKQCAYFCENEPKSSDKTHTCPPCPAPEAEGAPSVFLFPPKPKDTLMISRTPEVTCVVVDVSHEDPEVKFNWYVDGVEVHNAKTKPREEQYNSTYRVVSVLTVLHQDWLNGKEYKCKVSNKALPSSIEKTISKAKGQPREPQVYTLPPSRDELTKNQVSLTCLVKGFYPSDIAVEWESNGQPENNYKTTPPVLDSDGSFFLYSKLTVDKSRWQQGNVFSCSVMHEALHNHYTQKSLSLSPGK | 4.95 nM | 0.121 nM
4 | TACI (d1-29)-Fc5 (protein) MDAMKRGLCCVLLLCGAVFVSLSQEIHAELRRFRRAMRSCPEEQYWDPLLGTCMSCKTICNHQSQRTCAAFCRSLSCRKEQGKFYDHLLRDCISCASICGQHPKQCAYFCENKLRSPVNLPPELRRQRSGEVENNSDNSGRYQGLEHRGSEASPALPGLKEPKSSDKTHTCPPCPAPEAEGAPSVFLFPPKPKDTLMISRTPEVTCVVVDVSHEDPEVKFNWYVDGVEVHNAKTKPREEQYNSTYRVVSVLTVLHQDWLNGKEYKCKVSNKALPSSIEKTISKAKGQPREPQVYTLPPSRDELTKNQVSLTCLVKGFYPSDIAVEWESNGQPENNYKTTPPVLDSDGSFFLYSKLTVDKSRWQQGNVFSCSVMHEALHNHYTQKSLSLSPGK | 2.07 nM | 0.134 nM
